Measured values reported in patent US20100184651A1, “TARGETED FUSION PROTEINS FOR CANCER THERAPY” (Dabur Pharma Limited, priority 2005, published 2010).

Tests used:
[1] = target: T1, VPAC 1 receptors expressed on A549 cells (Homo sapiens, UniProt P32241); assay: Immunocytochemical staining for cell surface receptors on A549 cells; assay type: binding
T1 construct: the receptors were overexpressed in the A549 cell line; endogenous in cells; host or cells: A549 human lung carcinoma cells (acetone-fixed on slides)
T1 sequence (P32241 31-457): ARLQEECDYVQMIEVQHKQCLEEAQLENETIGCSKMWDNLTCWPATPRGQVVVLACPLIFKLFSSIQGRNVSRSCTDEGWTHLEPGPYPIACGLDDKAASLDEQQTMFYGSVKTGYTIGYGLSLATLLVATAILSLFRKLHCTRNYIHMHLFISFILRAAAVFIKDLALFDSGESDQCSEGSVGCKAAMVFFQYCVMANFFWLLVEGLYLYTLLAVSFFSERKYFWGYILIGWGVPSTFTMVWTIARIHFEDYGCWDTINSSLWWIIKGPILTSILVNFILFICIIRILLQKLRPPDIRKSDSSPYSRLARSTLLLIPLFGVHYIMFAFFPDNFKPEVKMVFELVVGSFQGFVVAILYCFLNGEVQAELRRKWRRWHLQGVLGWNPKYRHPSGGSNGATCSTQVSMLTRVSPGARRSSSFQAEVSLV
Method: Similarly, when, the cells were treated with fusion protein and immuno-stained with anti-BID. […] A similar observation was made when A549 cells were pre-treated with VIP antagonist, VIP (10-28) followed by fusion protein and immunostaining with anti-BID (FIG. 15e).
Cultured (A549 human lung carcinoma) cells were detached with trypsin/EDTA and pelleted by low-speed centrifugation. The cells were resuspended in PBS. Cell suspensions were coated onto poly-L-lysine coated glass slides, dried and then fixed for 10 min in acetone at −20° C. After drying for 2 h, slides were rinsed in PBS and then treated for 5 min with water/H2O2 in order to block endogenous peroxidase. Slides were again rinsed again in PBS and treated with normal rabbit and goat serum to block background staining. Slides were then incubated with antagonist, VIP(10-28) and/or fusion protein for 1 hr each. Slides were again washed with PBS and incubated with rabbit-anti-BID antibody (dilution 1:1000) or goat anti-VPAC 1 antibody (dilution 1:1000) for 1 h. Slides were again washed in PBS and incubated with […] IgG peroxidase labelled antibodies for anti-BID and anti-VPAC 1 primary antibodies respectively, for 1 h followed by addition of the 3,3′-diaminobenzidine-tetrachloride (DAB) substrate and hydrogen peroxide in PBS. […]

[2] = target: T2, recombinant human cathepsin D (Homo sapiens, UniProt P07339); assay: Cleavage at the linker site with recombinant human cathepsin D, followed by LC-MS; assay type: biochemical; conditions: cathepsin D at a ratio of ~400:1 (w/w), pH 3.5, 37° C.
T2 construct: purchased R&D Systems, Abingdon, UK
T2 sequence (P07339 65-412): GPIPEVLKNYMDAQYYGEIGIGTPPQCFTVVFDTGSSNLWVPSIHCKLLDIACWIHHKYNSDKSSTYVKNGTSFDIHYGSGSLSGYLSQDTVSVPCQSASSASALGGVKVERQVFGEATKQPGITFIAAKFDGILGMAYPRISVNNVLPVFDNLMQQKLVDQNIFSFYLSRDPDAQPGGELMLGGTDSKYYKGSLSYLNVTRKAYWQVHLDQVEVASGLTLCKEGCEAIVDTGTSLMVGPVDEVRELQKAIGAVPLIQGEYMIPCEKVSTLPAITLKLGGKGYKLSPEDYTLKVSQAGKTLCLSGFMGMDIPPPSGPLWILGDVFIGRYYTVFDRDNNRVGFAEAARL
Method: To evaluate the role of the linker used we carried out an in vitro digestion of the protein with cathepsin D at a ratio of ˜400:1 (w/w) and followed the cleavage by mass spectrometry as a function of time (FIG. 16). The first cleavage occurred at the linker by around 30 minutes of treatment with the protease, giving two peptides of 3914.4 Da (FIGS. 17a) and 4477 Da (FIG. 17b), which corresponded to M (1-34) L (expected mass 3915.5 Da) and L (35-71) H (expected mass 4475 Da) peptides respectively although the majority of the protein was still intact (FIG. 17c), which justified our design of the protein. Subsequently, the protein was cleaved at other sites as mapped by mass spectrometry till 2 H of digestion (FIGS. 18a-e, 19).
LC/MS analyses were carried out using a Waters 2695 high-perfomance liquid chromatography (HPLC) system (Milford, USA) and Micromass Quattro Micro mass spectrometer (Micromass, UK) using a ZORBAX Eclipse XDB-C18 (4.6×150 mm, 5 μM) column. Mobile phase solvents were 0.1% HCOOH in Milli Q Water (A) and 0.1% HCOOH in Acetonitrile (B). Fusion protein was eluted using a linear gradient program: 0 min 100% A; 60 min 100% B; 60-75 min 100% A, at a constant flow rate of 1.2 mL min^−1, and a volume of 50 μl was directed to the detector of the mass spectrometer. […]

[3] = test system: normal murine cell line, NIH3T3; assay: MTT cytotoxicity assay, NIH3T3; assay type: cell-based, mouse; conditions: NIH3T3, 24 h treatment
Method: Subsequently, cytotoxicity of this protein was determined on cell lines over expressing the VIP receptor like colon carcinoma cell line, HT29 and non small cell lung carcinoma cell line, A549 and compared with a normal murine cell line, NIH3T3, by a quantitative MTT assay. […] Different sensitivities of the two cell lines may be attributed to the differential expression of the VPAC1 receptors and the inherent sensitivity of the cell lines.
Cells were seeded in 96-well microplates, followed by the addition of various concentrations of the fusion protein. After a 24-hour incubation, the MTT assay was performed according to the method of Mosmann [Mosmann T, J Immunol. Methods, 1983, 55-63]. Serial dilutions of chemotherapeutic agents prepared by the Multiplication method were placed in a 96-well microplate. Since the cell lines employed in the present study had different proliferation rates, the number of cultured cells was adjusted to a density that allowed the untreated control cells to grow exponentially. […] Then 200 μl of DMSO was added, and the absorbance was determined at a wavelength of 540 nm using an ELISA reader. Results were expressed as the percent survival of the control experiments in which the cells were not exposed to any protein. […]

A549 cells = assay: Mitochondrial membrane potential analysis with JC-1 dye; assay type: cell-based, human; conditions: dose dependent
Method: After having determined the role of the targeting VIP peptide and the cathepsin cleavable linker we investigated the role of the apoptotic BID peptide. In this regard, we monitored the mitochondrial membrane potential of the cells on treatment with fusion protein using JC-1 dye.
Aliquots of cell suspensions were incubated with 4 μM of JC-1, a specific MMP dependent fluorescence dye [Hortelano S. et al., FEBS Lett, 1997, 411: 77-82], for 30 min at 37° C. and washed once in PBS. Mitochondrial depolarization was qualitatively estimated by fluorescence microscopy with a long-pass filter. […] JC-1 forms aggregates in cells with a high red fluorescence (585 nm) indicating a normal MMP. MMP loss results in a reduction in red fluorescence with a concurrent gain in green fluorescence (530 nm) as the dye shifts from aggregates to monomeric state. Therefore, retention of the dye in the cells can be monitored through the increase in green fluorescence. The fluorescence was measures using Varioskan spectrofluorimeter (Thermo Electron Corporation, Waltham, Mass. USA) and the data was converted to density plots.

- immunostaining with anti-BID after treatment of cells ([1]; A549 cells treated with fusion protein, anti-BID): localization of the protein on the cells
- time of first cleavage at the linker [2]: around 30 minutes
B1: fusion protein: 71 amino acid recombinant polypeptide: VIP, cathepsin cleavable linker SLLIARRMPNFN, BH3 domain of BID, His tag (SEQ ID NO: 10) (protein)
chain: MHSDAVFTDNYTRLRKQMAVKKYLNSILNGSSLLIARRMPNFNEDIIRNIARHLAQVGDSMDRLEHHHHHH
modifications: This amino acid sequence was artificially generated using naturally occurring mature human VIP peptide produced in E.coli as fusion protein
- availability of VPAC-1 receptors to anti VPAC-1 after pre-treatment ([1]; A549 cells pre-treated, then anti-VPAC-1 immunostaining): significant loss in the immunostained cell population
- IC50 [3]: > 30 µM
- effect on mitochondrial membrane potential (A549 cells): decreasing the mitochondrial membrane potential
